Measured values published in paper PMC9597352.

Molecular target: T1, GST-Arl8b, Q9NVJ2
T1 chain: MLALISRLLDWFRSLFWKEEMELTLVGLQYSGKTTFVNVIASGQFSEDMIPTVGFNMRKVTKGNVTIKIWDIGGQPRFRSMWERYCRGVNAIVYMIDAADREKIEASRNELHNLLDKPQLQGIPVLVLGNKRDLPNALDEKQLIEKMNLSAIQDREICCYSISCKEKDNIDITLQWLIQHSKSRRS
Assay: pull-down; GST-Arl8b on glutathione-agarose beads loaded with 20 mM GTP (TAP lysis buffer, 10 mM MgCl2, 30 min, 4°C), then HEK293T lysates of transfected cells, 2 h, 4°C; anti-FLAG blot
Conditions: remark: other sources report otherwise

B1: RUFY3-FLAG, Q7L099 1-469 (natural protein)
chain: MSALTPPTDMPTPTTDKITQAAMETIYLCKFRVSMDGEWLCLRELDDISLTPDPEPTHEDPNYLMANERMNLMNMAKLSIKGLIESALNLGRTLDSDYAPLQQFFVVMEHCLKHGLKAKKTFLGQNKSFWGPLELVEKLVPEAAEITASVKDLPGLKTPVGRGRAWLRLALMQKKLSEYMKALINKKELLSEFYEPNALMMEEEGAIIAGLLVGLNVIDANFCMKGEDLDSQVGVIDFSMYLKDGNSSKGTEGDGQITAILDQKNYVEELNRHLNATVNNLQAKVDALEKSNTKLTEELAVANNRIITLQEEMERVKEESSYILESNRKGPKQDRTAEGQALSEARKHLKEETQLRLDVEKELEMQISMRQEMELAMKMLEKDVCEKQDALVSLRQQLDDLRALKHELAFKLQSSDLGVKQKSELNSRLEEKTNQMAATIKQLEQSEKDLVKQAKTLNSAANKLIPKHH
pulldown relative to RUFY1 (densitometry, normalized to input): 2 fold
